The text below walks through data of the Immune Epitope Database (IEDB).

What all share (assay): IEDB peptide-MHC binding, purified MHC/competitive/radioactivity; filed as Kd, often an IC50 or EC50 that approximates it; ≥ and ≤ were set here for values at or beyond the usual limits of such assays
For assay [1], the target named is HLA-A*02:02.
The target of assay [2] is HLA-A*02:03.
The target of assay [3] is HLA-A*02:06.
Setting [4] is: source organism: Vaccinia virus WR.
[5] abbreviates: source organism: SARS coronavirus Tor2.
Where [6] appears, read: source organism: Lymphocytic choriomeningitis virus (strain Armstrong).

Regarding AAAKTPVIVV, the Kd in assay [1] (setting [4]) is 8040 nM; in assay [2] (setting [4]), 1520 nM; in assay [3] (setting [4]), 13400 nM.

For the sequence AAVIIMAINV, the Kd in assay [1] (setting [4]) is 1290 nM; in assay [2] (setting [4]), 607 nM; in assay [3] (setting [4]), 446 nM.

Take AIILASFSA: the Kd in assay [1] (setting [5]) worked out at 201 nM; in assay [2] (setting [5]) it was 176 nM; in assay [3] (setting [5]), 81.6 nM.

Consider AIKSNNHLT, for which the Kd is at least 50700 nM in assay [1] (setting [4]), at least 28600 nM in assay [2] (setting [4]) and at least 77100 nM in assay [3] (setting [4]).

With AILLVAVSFV, in assay [3] (source organism: Dengue virus 2 Jamaica/1409/1983), the Kd amounted to 60.9 nM.

For the sequence AMWLLLLSI, the Kd in assay [1] (setting [5]) stood at 357 nM; in assay [2] (setting [5]), 205 nM; in assay [3] (setting [5]), 268 nM.

As to AVANCVRNL, the Kd in assay [1] (setting [4]) amounted to 66.3 nM; in assay [2] (setting [4]), 114 nM; in assay [3] (setting [4]), 1380 nM.

Turning to CALVSDCAST, the results for the Kd in assay [1] (setting [4]), in assay [2] (setting [4]) and in assay [3] (setting [4]) were 6410 nM, 146 nM and 2600 nM, respectively.

Consider DINESMSQMV, for which the results for the Kd in assay [1] (setting [4]), in assay [2] (setting [4]) and in assay [3] (setting [4]) were 312 nM, 488 nM and 4150 nM, respectively.

With DISDVKVLAA, the Kd in assay [1] (setting [4]) was at least 33800 nM; in assay [2] (setting [4]), 2200 nM; in assay [3] (setting [4]) it was 4610 nM.

Consider DLAIKQYGDI, for which the figures for the Kd in assay [1] (setting [4]), in assay [2] (setting [4]) and in assay [3] (setting [4]) were 17900 nM, at least 33300 nM and at least 46500 nM, respectively.

In the case of EAFETQSGAL, the results for the Kd in assay [1] (setting [4]), in assay [2] (setting [4]) and in assay [3] (setting [4]) were 8560 nM, 995 nM and 15000 nM, respectively.

Take EILSNTTKTL: the Kd in assay [1] (setting [4]) is 345 nM; in assay [2] (setting [4]), 101 nM; in assay [3] (setting [4]) it was at least 69800 nM.

For ELENKKVEYV, the figures for the Kd in assay [1] (setting [4]), in assay [2] (setting [4]) and in assay [3] (setting [4]) were at least 21400 nM, 3650 nM and at least 69800 nM, respectively.

On to ELTSNCTRT, for which the results for the dissociation constant Kd in assay [1] (setting [4]), in assay [2] (setting [4]) and in assay [3] (setting [4]) were at least 77800 nM, at least 78100 nM and at least 46500 nM, respectively.

As to FLDWIKDIMT, the Kd was found to be 424 nM in assay [1] (setting [4]), 146 nM in assay [2] (setting [4]) and 140 nM in assay [3] (setting [4]).

As for FLVLIMLII, the Kd amounted to 1630 nM in assay [1] (setting [5]), 9730 nM in assay [2] (setting [5]) and 1350 nM in assay [3] (setting [5]).

On to FMLNVSYLC, for which the Kd came out at 196 nM in assay [1] (setting [6]), 1250 nM in assay [2] (setting [6]) and 932 nM in assay [3] (setting [6]).

For the sequence FQRVLIFIL, the Kd in assay [3] (source organism: Dengue virus 2 Peru/IQT2913/1996) amounted to 1580 nM.

Take FTEEQQQSFM: the figures for the Kd in assay [1] (setting [4]), in assay [2] (setting [4]) and in assay [3] (setting [4]) were 1120 nM, 1750 nM and 833 nM, respectively.

On to FTELENKKV, for which the Kd in assay [1] (setting [4]) was 19600 nM; in assay [2] (setting [4]), 8080 nM; in assay [3] (setting [4]) it was 6840 nM.

With FTLLFQLCT, the Kd in assay [1] (setting [5]) was determined as 1100 nM; in assay [2] (setting [5]) it was 744 nM; in assay [3] (setting [5]), 140 nM.

For GTMPSLTMAC, the dissociation constant (Kd) in assay [1] (setting [6]) is at least 25200 nM; in assay [2] (setting [6]), 16300 nM; in assay [3] (setting [6]), 12100 nM.

As for GVPHSVFIA, the Kd was determined as 5370 nM in assay [1] (setting [4]), 3630 nM in assay [2] (setting [4]) and 101 nM in assay [3] (setting [4]).

Regarding HAFLCLFLL, the values for the Kd in assay [1] (setting [5]), in assay [2] (setting [5]) and in assay [3] (setting [5]) were 20.7 nM, 46.5 nM and 1.22 nM, respectively.

Turning to IAGGVCYYL, the Kd in assay [1] (setting [4]) worked out at 53.1 nM; in assay [2] (setting [4]) it was 1680 nM; in assay [3] (setting [4]), 1410 nM.

Take IAVSVYGAI: the Kd in assay [1] (setting [4]) is 1480 nM; in assay [2] (setting [4]), 124 nM; in assay [3] (setting [4]) it was 1100 nM.

ILAGPMPVTA: in assay [2] (source organism: Dengue virus 3 Martinique/1243/1999), the Kd worked out at 125 nM.

Consider ILISLINSLV, for which the Kd in assay [1] (setting [4]) amounted to 22.9 nM; in assay [2] (setting [4]), 3.08 nM; in assay [3] (setting [4]), 151 nM.

For IQYRQQLEL, the values for the Kd in assay [1] (setting [4]), in assay [2] (setting [4]) and in assay [3] (setting [4]) were 511 nM, 44.9 nM and 41.3 nM, respectively.

Regarding ITDQTVNICI, the Kd is at least 70000 nM in assay [1] (setting [4]), at least 70400 nM in assay [2] (setting [4]) and 10400 nM in assay [3] (setting [4]).

Take ITLILSNKL: the results for the equilibrium dissociation constant (Kd) in assay [1] (setting [4]), in assay [2] (setting [4]) and in assay [3] (setting [4]) were 5110 nM, 17100 nM and 396 nM, respectively.

Consider IVSHLRASTT, for which the Kd in assay [1] (setting [4]) was determined as 139 nM; in assay [2] (setting [4]) it was 111 nM; in assay [3] (setting [4]) it was 173 nM.

IVVPVIDRL: the results for the Kd in assay [1] (setting [4]), in assay [2] (setting [4]) and in assay [3] (setting [4]) were 144 nM, 226 nM and 30.9 nM, respectively.

Consider IVYGRSNAIL, for which the results for the Kd in assay [1] (setting [4]), in assay [2] (setting [4]) and in assay [3] (setting [4]) were 91.6 nM, 33.4 nM and 424 nM, respectively.

On to KLMGHFSWWT, for which the dissociation constant Kd in assay [1] (setting [5]) was 64.4 nM; in assay [2] (setting [5]), 213 nM; in assay [3] (setting [5]) it was 99.1 nM.

In the case of KVLSIMAFIL, the Kd is 2.32 nM in assay [1] (setting [4]), 684 nM in assay [2] (setting [4]) and 19.1 nM in assay [3] (setting [4]).

The term Kd denotes a measure of binding affinity in units of concentration.
